This is an account of results in US20230279151A1.

The target of the experiment is human IL13 (IL012, Millipore) (human) (UniProt P35225). The experiment is described as follows: SPR, Biacore 3000, antibody captured by anti-human Fc, IL13 as analyte; HEK293-FS expression.
human IL13 (IL012, Millipore) (human), sequence (P35225 35-146 limits assumed): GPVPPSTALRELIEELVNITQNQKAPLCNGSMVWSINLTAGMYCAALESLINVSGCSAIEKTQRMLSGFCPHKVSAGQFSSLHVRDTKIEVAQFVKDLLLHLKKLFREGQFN

B1: anti-IL13 mAb ctrl (antibody, from a related filing, V domains shown)
VH: EVQLKESGPGLVAPGGSLSITCTVSGFSLTDSSINWVRQPPGKGLEWLGMIWGDGRIDYADALKSRLSISKDSSKSQVFLEMTSLRTDDTATYYCARDGYFPYAMDFWGQGTSVTVSS
VL: DIVLTQSPASLAVSLGQRATISCRASESVDSYGQSYMHWYQQKAGQPPKLLIYLASNLESGVPARFSGSGSRTDFTLTIDPVQAEDAATYYCQQNAEDSRTFGGGTKLEIK
On to B1, for which the Kd came to 0.0888 nM, the koff worked out at 4.52e-05 s⁻¹ and the kon was determined as 508000 M⁻¹ s⁻¹.
